Test [1] has as its target native ArtinM (jArtinM) (Artocarpus heterophyllus). Briefly: SDS-PAGE of undenatured sample; undenatured protein (no thermal dissociation) loaded on 12.5 % SDS-PAGE, 3 μg per lane, Coomassie blue G-250.
Test [2] has as its target recombinant ArtinM (rArtinM) (Artocarpus heterophyllus). The test can be described thus: AUC; sedimentation velocity at 50,000 rpm, 20 °C, c(S) fit in SEDFIT; confirmed by sedimentation equilibrium.

As usually defined, the stoichiometry N is the number of molecules, sites or subunits per partner or assembly.

Turning to “native ArtinM (jArtinM) (natural protein)”, the stoichiometry N in test [1] was found to be 4. Regarding “recombinant ArtinM (rArtinM) (natural protein)”, the stoichiometry N in test [2] worked out at 3.

(Values after paper PMC4932716.)
